Test results: patent publication US20230287143A1 (published 2023)

Target: human PD-L1 (human, UniProt Q9NZQ7 19-290)
Experiment: FACS

Sequence of human PD-L1 (Q9NZQ7 19-290): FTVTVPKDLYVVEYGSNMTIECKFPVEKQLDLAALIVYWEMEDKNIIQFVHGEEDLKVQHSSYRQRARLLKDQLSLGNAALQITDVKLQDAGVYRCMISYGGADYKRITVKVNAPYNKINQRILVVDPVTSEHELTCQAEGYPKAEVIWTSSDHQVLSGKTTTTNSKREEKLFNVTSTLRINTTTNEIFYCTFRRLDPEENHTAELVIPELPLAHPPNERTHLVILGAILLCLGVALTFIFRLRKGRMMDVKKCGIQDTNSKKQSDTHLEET

B1: PR004268, PD-L1×4-1BB bispecific binding protein with the VH-IgG structure (structure 4) (bispecific antibody)
light: DIQMTQSPSTLSASVGDRVTVTCRASQSIYIWLAWYQQKPGKAPNLLIYKASSLETGVPSRFSGSGSGTEFTLTISSLQPDDFATYYCQQYYGSSRTFGQGTKVEIKRTVAAPSVFIFPPSDEQLKSGTASVVCLLNNFYPREAKVQWKVDNALQSGNSQESVTEQDSKDSTYSLSSTLTLSKADYEKHKVYACEVTHQGLSSPVTKSFNRGEC
heavy: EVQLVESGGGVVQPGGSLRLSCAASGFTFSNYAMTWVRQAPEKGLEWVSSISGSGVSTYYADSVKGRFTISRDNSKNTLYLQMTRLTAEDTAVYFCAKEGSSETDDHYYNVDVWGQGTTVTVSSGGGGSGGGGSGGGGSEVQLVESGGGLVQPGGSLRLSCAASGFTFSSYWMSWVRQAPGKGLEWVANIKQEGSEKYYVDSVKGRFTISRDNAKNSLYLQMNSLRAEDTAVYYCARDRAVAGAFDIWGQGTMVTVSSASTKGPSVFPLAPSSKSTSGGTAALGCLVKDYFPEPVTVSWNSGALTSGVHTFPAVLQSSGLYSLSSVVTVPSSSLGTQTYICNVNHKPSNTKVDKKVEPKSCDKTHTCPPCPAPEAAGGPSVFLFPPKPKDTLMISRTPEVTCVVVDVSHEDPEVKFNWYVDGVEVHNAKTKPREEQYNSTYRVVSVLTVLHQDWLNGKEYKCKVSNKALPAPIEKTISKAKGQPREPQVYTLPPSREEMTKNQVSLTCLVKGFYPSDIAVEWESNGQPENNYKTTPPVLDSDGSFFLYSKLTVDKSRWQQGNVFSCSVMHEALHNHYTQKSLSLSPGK
EC50: 1.2 nM
